The record followed here is the Human Domainome abundance scans (Beltran et al. 2025).

The chains are these.
B1: Histidine--tRNA ligase, cytoplasmic, residues 8 to 45; numbered along this chain, P12081 (parent)
chain: EELVKLQGERVRGLKQQKASAELIEEEVAKLLKLKAQL

± gives the uncertainty stated by the source.

Variants of B1 are the subject of this data set. The experiment in a line: abundance fitness (aPCA) (normalised: wild type 0, dead -1); higher = more abundant; growth selection in yeast, the domain comes from the species named. As to conditions: Homo sapiens.
Regarding LELVKLQGERVRGLKQQKASAELIEEEVAKLLKLKAQL [E1L], the abundance fitness was -0.687 ± 0.098.

As for YELVKLQGERVRGLKQQKASAELIEEEVAKLLKLKAQL [E1Y], the abundance fitness was -1.05 ± 0.24.

VELVKLQGERVRGLKQQKASAELIEEEVAKLLKLKAQL [E1V]: the abundance fitness was -0.661 ± 0.086.

With WELVKLQGERVRGLKQQKASAELIEEEVAKLLKLKAQL [E1W], the abundance fitness was -0.537 ± 0.17.

Consider IELVKLQGERVRGLKQQKASAELIEEEVAKLLKLKAQL [E1I], for which the abundance fitness is -0.132 ± 0.16.

For RELVKLQGERVRGLKQQKASAELIEEEVAKLLKLKAQL [E1R], the abundance fitness is -0.992 ± 0.2.

On to SELVKLQGERVRGLKQQKASAELIEEEVAKLLKLKAQL [E1S], for which the abundance fitness is -0.737 ± 0.14.

As to DELVKLQGERVRGLKQQKASAELIEEEVAKLLKLKAQL [E1D], the abundance fitness was -0.377 ± 0.14.

As for KELVKLQGERVRGLKQQKASAELIEEEVAKLLKLKAQL [E1K], the abundance fitness is -0.165 ± 0.15.

For the variant FELVKLQGERVRGLKQQKASAELIEEEVAKLLKLKAQL [E1F], the abundance fitness is -0.386 ± 0.24.

MELVKLQGERVRGLKQQKASAELIEEEVAKLLKLKAQL [E1M]: the abundance fitness is -0.139 ± 0.15.

On to HELVKLQGERVRGLKQQKASAELIEEEVAKLLKLKAQL [E1H], for which the abundance fitness was -1.02 ± 0.45.

With TELVKLQGERVRGLKQQKASAELIEEEVAKLLKLKAQL [E1T], the abundance fitness was -0.692 ± 0.11.

For the variant EELNKLQGERVRGLKQQKASAELIEEEVAKLLKLKAQL [V4N], the abundance fitness was -0.139 ± 0.094.

Consider EELIKLQGERVRGLKQQKASAELIEEEVAKLLKLKAQL [V4I], for which the abundance fitness was -0.013 ± 0.084.

For EELCKLQGERVRGLKQQKASAELIEEEVAKLLKLKAQL [V4C], the abundance fitness is -0.46 ± 0.097.

In the case of EELLKLQGERVRGLKQQKASAELIEEEVAKLLKLKAQL [V4L], the abundance fitness was -0.201 ± 0.083.

For the variant EELEKLQGERVRGLKQQKASAELIEEEVAKLLKLKAQL [V4E], the abundance fitness was -0.139 ± 0.088.

In the case of EELPKLQGERVRGLKQQKASAELIEEEVAKLLKLKAQL [V4P], the abundance fitness is -0.658 ± 0.092.

Take EELTKLQGERVRGLKQQKASAELIEEEVAKLLKLKAQL [V4T]: the abundance fitness was -0.19 ± 0.082.

For the variant EELHKLQGERVRGLKQQKASAELIEEEVAKLLKLKAQL [V4H], the abundance fitness is -0.463 ± 0.089.

Turning to EELRKLQGERVRGLKQQKASAELIEEEVAKLLKLKAQL [V4R], the abundance fitness was -0.544 ± 0.077.

On to EELKKLQGERVRGLKQQKASAELIEEEVAKLLKLKAQL [V4K], for which the abundance fitness was -0.568 ± 0.16.

With EELSKLQGERVRGLKQQKASAELIEEEVAKLLKLKAQL [V4S], the abundance fitness is -0.264 ± 0.077.

For EELDKLQGERVRGLKQQKASAELIEEEVAKLLKLKAQL [V4D], the abundance fitness was -0.01 ± 0.13.

For EELGKLQGERVRGLKQQKASAELIEEEVAKLLKLKAQL [V4G], the abundance fitness is -0.227 ± 0.073.

With EELFKLQGERVRGLKQQKASAELIEEEVAKLLKLKAQL [V4F], the abundance fitness was -0.109 ± 0.096.

Regarding EELQKLQGERVRGLKQQKASAELIEEEVAKLLKLKAQL [V4Q], the abundance fitness is -0.563 ± 0.11.

Regarding EELMKLQGERVRGLKQQKASAELIEEEVAKLLKLKAQL [V4M], the abundance fitness is -0.079 ± 0.092.

Turning to EHLVKLQGERVRGLKQQKASAELIEEEVAKLLKLKAQL [E2H], the abundance fitness is -0.195 ± 0.079.

In the case of ERLVKLQGERVRGLKQQKASAELIEEEVAKLLKLKAQL [E2R], the abundance fitness is -0.661 ± 0.1.

For EPLVKLQGERVRGLKQQKASAELIEEEVAKLLKLKAQL [E2P], the abundance fitness was -0.9 ± 0.11.

Take EQLVKLQGERVRGLKQQKASAELIEEEVAKLLKLKAQL [E2Q]: the abundance fitness is -0.472 ± 0.11.

Regarding EILVKLQGERVRGLKQQKASAELIEEEVAKLLKLKAQL [E2I], the abundance fitness was -0.369 ± 0.087.

Turning to EWLVKLQGERVRGLKQQKASAELIEEEVAKLLKLKAQL [E2W], the abundance fitness was -0.97 ± 0.098.

Take EGLVKLQGERVRGLKQQKASAELIEEEVAKLLKLKAQL [E2G]: the abundance fitness was -0.868 ± 0.2.

EMLVKLQGERVRGLKQQKASAELIEEEVAKLLKLKAQL [E2M]: the abundance fitness is -0.636 ± 0.11.

For ETLVKLQGERVRGLKQQKASAELIEEEVAKLLKLKAQL [E2T], the abundance fitness is -0.591 ± 0.081.

With EALVKLQGERVRGLKQQKASAELIEEEVAKLLKLKAQL [E2A], the abundance fitness was -0.665 ± 0.089.

Consider ESLVKLQGERVRGLKQQKASAELIEEEVAKLLKLKAQL [E2S], for which the abundance fitness was -0.327 ± 0.085.

As to ECLVKLQGERVRGLKQQKASAELIEEEVAKLLKLKAQL [E2C], the abundance fitness is -1.08 ± 0.3.

EFLVKLQGERVRGLKQQKASAELIEEEVAKLLKLKAQL [E2F]: the abundance fitness is -0.274 ± 0.28.

Take EYLVKLQGERVRGLKQQKASAELIEEEVAKLLKLKAQL [E2Y]: the abundance fitness is -0.452 ± 0.11.

Take EVLVKLQGERVRGLKQQKASAELIEEEVAKLLKLKAQL [E2V]: the abundance fitness is -0.762 ± 0.085.

Take EKLVKLQGERVRGLKQQKASAELIEEEVAKLLKLKAQL [E2K]: the abundance fitness is -0.703 ± 0.16.

For ELLVKLQGERVRGLKQQKASAELIEEEVAKLLKLKAQL [E2L], the abundance fitness is -0.632 ± 0.094.

Consider ENLVKLQGERVRGLKQQKASAELIEEEVAKLLKLKAQL [E2N], for which the abundance fitness was -0.049 ± 0.11.

Take EETVKLQGERVRGLKQQKASAELIEEEVAKLLKLKAQL [L3T]: the abundance fitness was -0.024 ± 0.087.

Regarding EEQVKLQGERVRGLKQQKASAELIEEEVAKLLKLKAQL [L3Q], the abundance fitness worked out at 0.153 ± 0.1.

EEFVKLQGERVRGLKQQKASAELIEEEVAKLLKLKAQL [L3F]: the abundance fitness was -0.341 ± 0.099.

For the variant EEVVKLQGERVRGLKQQKASAELIEEEVAKLLKLKAQL [L3V], the abundance fitness is -0.366 ± 0.074.

For EEWVKLQGERVRGLKQQKASAELIEEEVAKLLKLKAQL [L3W], the abundance fitness is -1.54 ± 0.12.

Consider EENVKLQGERVRGLKQQKASAELIEEEVAKLLKLKAQL [L3N], for which the abundance fitness is -0.287 ± 0.096.

For EEIVKLQGERVRGLKQQKASAELIEEEVAKLLKLKAQL [L3I], the abundance fitness is -0.086 ± 0.095.

In the case of EESVKLQGERVRGLKQQKASAELIEEEVAKLLKLKAQL [L3S], the abundance fitness is -0.066 ± 0.067.

EEEVKLQGERVRGLKQQKASAELIEEEVAKLLKLKAQL [L3E]: the abundance fitness is 0.203 ± 0.091.

Turning to EEPVKLQGERVRGLKQQKASAELIEEEVAKLLKLKAQL [L3P], the abundance fitness is -0.729 ± 0.082.

As to EEHVKLQGERVRGLKQQKASAELIEEEVAKLLKLKAQL [L3H], the abundance fitness was -0.362 ± 0.095.

EEDVKLQGERVRGLKQQKASAELIEEEVAKLLKLKAQL [L3D]: the abundance fitness was -0.454 ± 0.11.

Consider EERVKLQGERVRGLKQQKASAELIEEEVAKLLKLKAQL [L3R], for which the abundance fitness is -0.258 ± 0.12.

As for EEKVKLQGERVRGLKQQKASAELIEEEVAKLLKLKAQL [L3K], the abundance fitness was -0.088 ± 0.11.

For EEGVKLQGERVRGLKQQKASAELIEEEVAKLLKLKAQL [L3G], the abundance fitness was -0.45 ± 0.1.

Consider EEYVKLQGERVRGLKQQKASAELIEEEVAKLLKLKAQL [L3Y], for which the abundance fitness is -0.549 ± 0.077.

Take EECVKLQGERVRGLKQQKASAELIEEEVAKLLKLKAQL [L3C]: the abundance fitness was -0.896 ± 0.098.

Regarding EEAVKLQGERVRGLKQQKASAELIEEEVAKLLKLKAQL [L3A], the abundance fitness is -0.162 ± 0.069.

As to EEMVKLQGERVRGLKQQKASAELIEEEVAKLLKLKAQL [L3M], the abundance fitness worked out at 0.156 ± 0.089.
